The values that follow come from publication PMC4820699, “Localisation and protein-protein interactions of the Helicobacter pylori taxis sensor TlpD and their connection to metabolic functions” (Scientific Reports, 2016).

In the experiment the target is T1, purified recombinant H. pylori catalase (KatA) (H. pylori, UniProt P77872 1-505).
T1 construct: Catalase KatA of Helicobacter pylori, recombinant, active, tag-free; source: E. coli, recombinant, tag-free, purified
T1 sequence: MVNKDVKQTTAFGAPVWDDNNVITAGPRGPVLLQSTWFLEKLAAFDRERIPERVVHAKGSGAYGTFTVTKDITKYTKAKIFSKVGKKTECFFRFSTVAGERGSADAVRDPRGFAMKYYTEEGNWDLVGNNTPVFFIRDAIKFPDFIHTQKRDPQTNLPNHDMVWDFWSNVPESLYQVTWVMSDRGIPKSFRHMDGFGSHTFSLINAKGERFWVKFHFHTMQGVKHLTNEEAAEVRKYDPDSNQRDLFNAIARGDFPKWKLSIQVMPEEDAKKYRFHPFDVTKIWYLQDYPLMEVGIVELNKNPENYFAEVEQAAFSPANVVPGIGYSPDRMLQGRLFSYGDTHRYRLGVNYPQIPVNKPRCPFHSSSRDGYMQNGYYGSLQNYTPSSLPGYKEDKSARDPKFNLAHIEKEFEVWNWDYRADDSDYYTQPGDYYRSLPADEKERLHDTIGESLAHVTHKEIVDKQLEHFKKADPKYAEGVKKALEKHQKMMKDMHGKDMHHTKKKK
Description: BLI; Octet RED96; inverse setting: ligand KatA (tag-free) coupled to the sensor via free amine groups, analyte TlpD-V5 at 200, 400 and 2,000 nM in assay buffer, association 1,800 sec; two-state parallel binding model. The note with it: both partners purified.

B1: TlpD-V5 (purified from H. pylori) (natural protein)
chain: not shown
notes: Transducer-like protein / energy taxis sensor TlpD of Helicobacter pylori; tlpD-V5 fusion gene with the potential tlpD promoter region in pHel2; also called TlpD (V5-tagged); native TlpD-V5; not shown: V5, C-terminal, kept
B1: the “KD (fast on, slow off; two-state parallel model)” value was found to be 275 nM and the “KD (slow on, fast off; two-state parallel model)” value turned out to be 2000 nM.
